Test system: K4 kissing-loop RNA reporter
Assay: apparent KD of K4 kissing-loop reporter; higher = weaker reporter binding
Settings: Eterna round: R107
Protocol: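 RNA-MaP round R107: designed RNA switches with theophylline, tryptophan, arginine or FMN aptamers are transcribed on-chip within common flanks. They are titrated with a labelled K4 kissing-loop RNA reporter in RNA-MaP buffer (100 mM Tris pH 7.5, 80 mM KCl, 4 mM MgCl2), without ligand or with the indicated ligand. Median apparent KD per design.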

[1] = input ligand: theophylline 20 uM
[2] = input ligand: tryptophan 2.4 mM
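Also: bound reporter read as fluorescence of individual clusters on recovered sequencing chips by microscopy, with normalized cluster intensities fitted with a binding model.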

Sequence	apparent KD of K4 kissing-loop reporter (input ligand: FMN 200 uM) [nM]	apparent KD of K4 kissing-loop reporter (input ligand: arginine 13.2 mM) [nM]	apparent KD of K4 kissing-loop reporter (input ligand: none) [nM]	apparent KD of K4 kissing-loop reporter [1] [nM]	apparent KD of K4 kissing-loop reporter [2] [nM]
CCGGCCCGGCCGGAUACCAGUGCGCCGCAGGGAACGGCGGGCCCAGAGUGAUGUUCGGGACACCCUUGGCAGCCGCCUGGGUCGC [#2 Same State - Theophylline B Attempt #27 (HarryS)]	286	123	231	225	245
CCGUAGAACGGAAGGAGCGCCAUAGAUAAGAAUUCCGUAAGUGAGUGAUGUUCACACAAAUGGCAGGUAGGUCGCCGUUAUUUAG [Arg B Ex t5]	178	194	220	202	201
CCUAUCUCAUACGAUACCAGUCAAUGAUCUUUGAUCAAUGCCAUCACCGAGUGAUGUUCGGACCCUUGGCAGCGUAUGGGAUAGG [whbob_Ex_Theo_B_sa102]	267	212	269	364	251
CCUCUCCUUGAUAGUGAUGUUAUCAAGGACAAGGAUAUCAUCUCAAUGAGAAGGUGUCCUUGAUAACAUGGAGGUCUGAAACAGA [Omei KL FMN A Exc C v1]	138	126	136	125	122
CCUGCUACGUAAGGAUAUGGAAAUGAGUGAUGUUUAGAGAUAUGGUCCAGGUUUAGUCAUCAUAGACCAGAAGGUACAUCGGGCG [theeternabot_exclusion_KL_FMN_B_8]	825	321	588	364	400
CCUUCUCUUGAUAGUGAUGUUAUCAAGGGCAAGGAUAUCAUCUCAAUGAGAAGGUGUCCUUGAUAACAUGGAGGUCUGAAACAGA [Omei KL FMN A Exc C v4]	157	165	209	159	206
CGAACCUCCAAAGGAUAUCUCGUUUAGUGAUGUUUUGCGUAGUAUCAGGAUAGAAUAUUGAUUCAGAGAGAAGGUUGACGUUGGU [theeternabot_exclusion_KL_FMN_B_14]	733	428	684	511	537
CGAAGACUUAUGGAUACCAGCCUAGCAUCAGGUGGUUCAGAGGCAUGCAGUGAUGUUGCAGGCCCUUGGCAGCCAUGGUACUAGA [Xelebi]	76	71.3	70	79.8	79.7
CGACGGAGUGAUGUUUCGUGGUAUGCUGAUACCAGAUGAAACAGCGUCCCUUGGCAGCAGCAUACGCCAAGGAUAAUAUCCUAGU [Theo B SS t6]	1200	611	1770	531	604
CGCAAGCAGCCAGUGAUGUUGGCCGCCUUGCGAGGACCGGUACGGCCGCCACUCGAAGGCGGCUACUGAUAAUCCGUCUAACGGA [KL-XTryp-A15]	107	85.4	102	92.4	111
CGCAGUGAUGUUGCGAGUAGAUACAGGGAAGGAGCGCGGUAGUACGCAGGUAGGUCGCCCACGCAGUGAUGUUGCGUCAUAGGGU [Exclusion Arginine A GF6]	103	93.1	91	98.6	95.7
CGCCGAAAGGCGAGCGCUCCCACUCCGGAAGGAGCGCCCGAAAGGGCAGGUAGGUCGCCGGAGUGAUGUUCCGGUGGAGGGCUCG [#2 Exclusion - Arginine A Attempt #30 (Inspired by Omei)]	177	167	817	212	296
CGCGCCCGGCCGGAUACCAGUGACCCGCUGGGAACCGCGGGCCCAGAGUGAUGUUCGGGACACCCUUGGCAGCCGCCUGGGCGUG [#2 Same State - Theophylline B Attempt #5 (HarryS)]	1110	364	841	738	550
CGCUGGAGUGAUGUUCCAGCUUCUACGGAUACCAGCCACGCCAGCGGCCCUUGGCAGCCGCAAAUUGCAGUGAUGUUGUGAUGCC [Same State Theophylline A GF 4]	314	278	312	312	283
CGCUUUGCGUCCGGUAGUGAUGUUACCAAGCGAGGACCGGUACGGCCGCCACUCGAGUGACAGACGUACUGGUAUCACCCGCUUU	223	229	248	235	208
CGGAUGUAGUGAUGUUAUAUUAGAUGUAGACGAGGACCGGUACGGCCGCCACUCGUGACGGCUGCUAGCGCGUUGCGAGGUGUGC [ExTryptoA.Cm]	729	575	657	690	603

From the supplement of paper PMC9170038
